Laboratory results reported in publication PMC5821843, “Development of a high-throughput assay for rapid screening of butanologenic strains” (Scientific Reports, 2018).

Experiments:
purified protein [1] = substrate: CCO; test: purified protein; details: 330 µM NAD+, 8 µM PMS, 330 µM NBT, 0.1% gelatin, 100 mM Tris-HCl pH 8.6, ~22 °C
purified protein [2] = substrate: CCCCO; test: purified protein; type: biochemical, Pseudothermotoga hypogea; details: NADP+ co-substrate, CAPS pH 11.6, 1 mM DTT, 0.1 mM FeCl2, 80 °C, anaerobic, aerobically purified enzyme

B1: Sc ADH (Saccharomyces cerevisiae S288C) (protein)
chain: SIPETQKGVIFYESHGKLEYKDIPVPKPKANELLINVKYSGVCHTDLHAWHGDWPLPVKLPLVGGHEGAGVVVGMGENVKGWKIGDYAGIKWLNGSCMACEYCELGNESNCPHADLSGYTHDGSFQQYATADAVQAAHIPQGTDLAQVAPILCAGITVYKALKSANLMAGHWVAISGAAGGLGSLAVQYAKAMGYRVLGIDGGEGKEELFRSIGGEVFIDFTKEKDIVGAVLKATDGGAHGVINVSVSEAAIEASTRYVRANGTTVLVGMPAGAKCCSDVFNQVVKSISIVGSYVGNRADTREALDFFARGLVKSPIKVVGLSTLPEIYEKMEKGQIVGRYVVDTSK
Purified protein [1]
  Km: 22.7 ± 2.9 mM
  kcat: 20.5 ± 2.37 s⁻¹

B2: Th ADH (Th ADH_ae) (Pseudothermotoga hypogea DSM 11164 = NBRC 106472) (protein)
chain: MENFVFHNPTKLIFGKGTIPKIGEEIKSFGIKKVLMLYGGGSIKKNGVYDQVVESLKRNGIEWVEVSGVKPNPVLSKVHEAIEVCRKENVEAVLGVGGGSVIDSAKAIAAGVLYEGDIWDAFAGKHKINNALPVFAILTISATGTEMNGNAVVTNEKTQEKWAISAKCLYPRVSIIDPTAQFSLPKEQTVYGAVDAIAHTLEYYFDGSDSDIQNQISESIIRSIMKSTEVLIDNPQDYEARANFAWCATIALNGLTAAGRKGGDWSCHKIEHSLSALYDIAHGAGLAIVFPAWMRYVYKQKPQQFERFAKHVFSIDAVGEEAILKGIDAFKAWLRKVGAPVSLRDVGIPAQDIDRIVENVMKQGPSFGVLKKLGKEDVKQILLIASQ
notes: ORF in pET-33b, N-terminal His6 tag (kept), E. coli BL21(DE3) Rosetta grown anaerobically, purified aerobically; ~42 kDa
Purified protein [2]
  Km: 34.1 ± 0.6 mM
  kcat: 3.943 ± 0.0867 s⁻¹
